Article PMC3386930, “Altering APP Proteolysis: Increasing sAPPalpha Production by Targeting Dimerization of the APP Ectodomain” (PLoS ONE, 2012)

What was measured:
eAPP230–624 [1] = target: T1, eAPP230–624 (Homo sapiens, UniProt P05067); assay: Small-angle X-ray scattering (SAXS) of eAPP230–624 complexes; type: binding; conditions: for Dmax / Rg: SAXS, GNOM, eAPP230–624 with peptide; for Dmax: maximum dimension, max. estimated error ±10 Å; for Rg: radius of gyration, max. estimated error ±2 Å
T1 construct: made in house
Method: The samples were incubated on ice for 20 minutes and then concentrated to 50 µl with 10-kDa cutoff concentrators (Millipore). […] Samples of the filtrates were used for buffer subtraction.
The samples were then concentrated and purified with a Superdex S200 size-exclusion column with 20 mM Tris pH 7.4, 100 mM sodium chloride and 2 mM EDTA. Samples of the protein buffer from the size-exclusion columns were used for buffer subtraction.
Data collection and processing
Small-angle X-ray scattering data were collected using protein concentrations in the range of 0.5–3 mg/ml and an X-ray wavelength of 1.11 Å at beam line 12.3.1 (Advanced Light Source). Data were integrated with software customized for the beam line and processed with the program PRIMUS [30]. The program GNOM [31] was used to calculate the maximum dimension and the radius of gyration and to estimate the intensity of the scattering at zero angle for higher concentration samples.

eAPP230–624 [2] = target: T1, eAPP230–624; assay: Intrinsic tryptophan fluorescence of eAPP230–624; type: binding; conditions: for inhibition of eAPP dimerization (in words): legend of titration of 0.64 µM eAPP230–624 with 0–60 µM fragment; for log(EC50), EC50 = molar ratio Aβ to eAPP230–624 that invokes half the response: quenching at 375 nm, equation 4, n constrained to 7, R^2 = 0.88, differences not significant at p<0.05
Method: The excitation spectra of the intrinsic tryptophan fluorescence were recorded using either a Shimadzu RF-530PC (Shimadzu Scientific Instruments) or a Spectramax XPS spectrophotometer (Molecular Devices).
Full emission spectra were measured with the Shimadzu RF-530PC using a 3 ml quartz cuvette, a 5 nm slit width and protein concentrations between 0.2–0.6 µM. […] For these larger dilutions, control titrations with the protein alone were used to generate a scaling matrix where the scale factor was both a function of wavelength and dilution. […] A similar scaling matrix was used to correct for the effect of dilution with DMSO. […] All titrations were performed at 24°C. The oligomers were stored on ice during the experiment.
These concentrations are analogous to concentrations used to create complexes for the small angle x-ray scattering analysis. The incubated material was diluted with PBS so that the final protein concentration was 0.5 µM. The spectra were recorded with the Shimadzu […].
For experiments with the Spectromax XPS plate reader, an excitation wavelength of 295 nm was used. This excitation wavelength was chosen to minimize both the contribution of tyrosine in the protein and the background fluorescence of the 96-well plates (Costar #3915).
For the quenching experiments, the data were analyzed by constructing Stern-Volmer plots, F0/F vs. Q, where Fo is the intensity of the fluorescence at zero concentration, F is the intensity of the fluorescence, and Q is the concentration of the quenching agent. When quenching is through either a static (binding) or dynamic (collisional) mechanism this plot is linear and follows the equation: [drawing 1] (1) where Ksv is the quenching constant. When both processes are present the Stern-Volmer plot is quadratic: [drawing 2] (2) where KD is the equilibrium constant associated with dynamic quenching and Ks is the equilibrium constant associated with static quenching. All parameters were determined using PRISM (GraphPad) and the appropriate non-linear curve fitting routine.
The centroid wavelength (λc) was calculated as: [drawing 3] (3) where I(λi) is the intensity observed for the wavelength (λi). The range of wavelengths was 310–390 nm.

[3] = target: MBP-eAPP_(230–624), maltose binding protein fusion protein containing residues 230–624 (UniProt P05067); assay: small-angle X-ray scattering (SAXS); 150 µl MBP-eAPP230-624 (≈0.5 mg/ml) diluted with 400 µl of peptide solution, 20 minutes on ice, concentrated to 50 µl with 10-kDa cutoff concentrators
[4] = target: TRX-eAPP_(290–624), thioredoxin fusion protein containing residues 290–624 of APP695 (UniProt P05067); assay: small-angle X-ray scattering (SAXS); eAPP fragment incubated on ice with Aβ oligomers or Aβ fragments (peptide less than 10 µM), concentrated and purified on Superdex S200 in 20 mM Tris pH 7.4, 100 mM sodium chloride, 2 mM EDTA
[5] = target: the molecule itself; assay: small-angle X-ray scattering (SAXS); eAPP fragment alone; 0.5–3 mg/ml, X-ray wavelength 1.11 Å; relative mass from I(0) against albumin and the eAPP fragment dimer
[6] = incubated, 1:6 molar ratio, 0.5 µM eAPP230–624

7-kDa Aβ1-40: 7-kDa Aβ1-40 dimers, prepared by sonication and 15 minutes incubation
MWcalc/MWseq (eAPP230–624 [1]; SAXS relative mass, MWseq 45-kDa for eAPP230–624, max. error ±0.2, monomer around 1.3, protein alone 2.0): 1.2 | Dmax (eAPP230–624 [1]): 180 Å | Rg (eAPP230–624 [1]): 49 Å | inhibition of eAPP dimerization (in words) (eAPP230–624 [2]): inhibit eAPP dimerization

13-kDa Aβ1-40: 13-kDa Aβ1-40 oligomer pool
more oligomers that can bind eAPP (ratio of amplitudes A) (eAPP230–624 [2]; from ratio of amplitudes of maximal response, vs 70-kDa pools, Spectramax XPS): about 150% | blue-shift in the centroid wavelength (eAPP230–624 [2]; [6]): did not produce a significant blue shift | fluorescence intensity relative to eAPP230–624 (eAPP230–624 [2]; [6]): 80% | log(EC50), EC50 = molar ratio Aβ to eAPP230–624 that invokes half the response (eAPP230–624 [2]; Spectramax XPS): 1.27±0.02

13-kDa Aβ1-42: 13-kDa Aβ1-42 oligomers, predominately trimers
increase in intensity of the fluorescence (eAPP230–624 [2]; rapid dilution, final 1:27 molar ratio, 0.64 µM eAPP230–624, Shimadzu RF-530PC): 114%

20-kDa Aβ1-42: 20-kDa Aβ1-42 oligomers
Dmax (eAPP230–624 [1]): 170 Å | Rg (eAPP230–624 [1]): 46 Å

70-kDa Aβ1-40: 70-kDa Aβ1-40 oligomer pool
log(EC50), EC50 = molar ratio Aβ to eAPP230–624 that invokes half the response (eAPP230–624 [2]; Spectramax XPS): 1.32±0.01

Aβ1-42 species greater than 200-kDa: Aβ1-42 species greater than 200-kDa in size
effect on intrinsic fluorescence at 375 nm (in words) (eAPP230–624 [2]; Spectramax XPS, increasing molar ratio, up to 120 µM Aβ): slight enhancement of the intrinsic fluorescence | change in fluorescence spectra (in words) (eAPP230–624 [2]; [6]): relatively minor change in the fluorescence spectra

Aβ5-14: Aβ fragment (RHDSGYEVHH; Amyloid-beta protein 42; UniProt P05067 676-685, looked up, fragment)
inhibition of eAPP dimerization (in words) (eAPP230–624 [2]): inhibit eAPP dimerization

Aβ10-20 (peptide)
MWcalc/MWseq (apparent mass of the sample over the sequence mass of the eAPP fragment) [3]: 1.3

Aβ11-17 (peptide)
MWcalc/MWseq (apparent mass of the sample over the sequence mass of the eAPP fragment) [4]: 1.2

Aβ12-24: Aβ fragment (VHHQKLVFFAEDV; Amyloid-beta protein 42; UniProt P05067 683-695, looked up, fragment)
inhibition of eAPP dimerization (in words) (eAPP230–624 [2]): inhibit eAPP dimerization

Aβ12-28: Aβ fragment
inhibition of eAPP dimerization (in words) (eAPP230–624 [2]): inhibit eAPP dimerization | pattern of changes in the intrinsic fluorescence (in words) (eAPP230–624 [2]; titration of 0.64 µM eAPP230–624, 345 nm): acted like Aβ1-40 dimers in terms of the changes in the intrinsic fluorescence

B1: TRX-eAPP_(290–624), thioredoxin fusion protein containing residues 290–624 of APP695 (domain or fragment, UniProt P05067-4 290-624, looked up)
chain: PTTAASTPDAVDKYLETPGDENEHAHFQKAKERLEAKHRERMSQVMREWEEAERQAKNLPKADKKAVIQHFQEKVESLEQEAANERQQLVETHMARVEAMLNDRRRLALENYITALQAVPPRPRHVFNMLKKYVRAEQKDRQHTLKHFEHVRMVDPKKAAQIRSQVMTHLRVIYERMNQSLSLLYNVPAVAEEIQDEVDELLQKEQNYSDDVLANMISEPRISYGNDALMPSLTETKTTVELLPVNGEFSLDDLQPWHSFGADSVPANTENEVEPVDARPAADRGLTTRPGSGLTNIKTEEISEVKMDAEFRHDSGYEVHHQKLVFFAEDVGSNK
notes: numbers count on: APP695; Dimer by SAXS; source: expressed and purified as previously described [18]
stoichiometry N [5]: 2

B2: MBP-eAPP_(230–624), maltose binding protein fusion protein containing residues 230–624 (domain or fragment, UniProt P05067-4 230-624, looked up)
chain: EEEEVAEVEEEEADDDEDDEDGDEVEEEAEEPYEEATERTTSIATTTTTTTESVEEVVRVPTTAASTPDAVDKYLETPGDENEHAHFQKAKERLEAKHRERMSQVMREWEEAERQAKNLPKADKKAVIQHFQEKVESLEQEAANERQQLVETHMARVEAMLNDRRRLALENYITALQAVPPRPRHVFNMLKKYVRAEQKDRQHTLKHFEHVRMVDPKKAAQIRSQVMTHLRVIYERMNQSLSLLYNVPAVAEEIQDEVDELLQKEQNYSDDVLANMISEPRISYGNDALMPSLTETKTTVELLPVNGEFSLDDLQPWHSFGADSVPANTENEVEPVDARPAADRGLTTRPGSGLTNIKTEEISEVKMDAEFRHDSGYEVHHQKLVFFAEDVGSNK
notes: as for B1
stoichiometry N [5]: 2

B3: eAPP_(230–624), fragment of the APP ectodomain containing residues 230–624 (domain or fragment, UniProt P05067-4 230-624, looked up)
chain: EEEEVAEVEEEEADDDEDDEDGDEVEEEAEEPYEEATERTTSIATTTTTTTESVEEVVRVPTTAASTPDAVDKYLETPGDENEHAHFQKAKERLEAKHRERMSQVMREWEEAERQAKNLPKADKKAVIQHFQEKVESLEQEAANERQQLVETHMARVEAMLNDRRRLALENYITALQAVPPRPRHVFNMLKKYVRAEQKDRQHTLKHFEHVRMVDPKKAAQIRSQVMTHLRVIYERMNQSLSLLYNVPAVAEEIQDEVDELLQKEQNYSDDVLANMISEPRISYGNDALMPSLTETKTTVELLPVNGEFSLDDLQPWHSFGADSVPANTENEVEPVDARPAADRGLTTRPGSGLTNIKTEEISEVKMDAEFRHDSGYEVHHQKLVFFAEDVGSNK
notes: as for B1
stoichiometry N [5]: 2
